Measurements taken from article PMC3022644, “The exopolyphosphatase TbrPPX1 of Trypanosoma brucei” (BMC Microbiology, 2011).

Substrate: O=P(O)(O)OP(=O)(O)OP(=O)(O)O
Assay: purified protein
Format: biochemical, Trypanosoma brucei
Details: 50 mM HEPES pH 7.8, 50 μM EGTA, 1 mM MgCl2, 30°C, GST fusion

B1: TbrPPX1 (Trypanosoma brucei) (protein)
chain: MTAVVNEFLKRGVRALAARQDSVLVMGNEGGDMDTVIGSIFLAMYLEKRDVFGVGSYVPVLNFEKDDLPLRQDVVKLLSRHNVSTDSIYSVKQSGNGVDFLDLHQMKLPIVLYDHNKLSPEQVYLGERIVGVVDHHEDEQLYVDQTKCLRRICKTGSACTLVAELFNEAGLEVPCPELLLAPIVVDTVNFEPSQKRVTERDILASRLLVGRDDCGDYLTGMFKELMAWKNDIHCLTVPQHLRRDYKNFEFPFISAENKILRVGISSISCRSDELLSVHGVSSVSSNCIEFIKQRSIDMLLLTFAGERTPGSYCRQLGVVAKDEGLAALQAYCKKSPSGLDFTLLEDVTVNEWAFSIYELSDPSVSRKKLVPSLTSFLSVWNNL
Km: 27.2 ± 4.2 µM | kcat: 8.1 ± 1.5 s⁻¹
